Assays:
[1] = target: cynomolgus TIM-3 Fc fusion antigen (Sino Biologicals) (cynomolgus monkey (Macaca fascicularis)); assay: ELISA; EC50 on cynomolgus TIM-3 over EC50 on human TIM-3
[2] = target: cynomolgus TIM-3 Fc fusion antigen (Sino Biologicals) (cynomolgus monkey (Macaca fascicularis)); assay: ELISA; TIM-3 Fc fusion coated at 1 µg/ml, antibody titrated 2-fold from 1000 nM, HRP secondary

cynomolgus TIM-3 Fc fusion antigen (Sino Biologicals) (cynomolgus monkey (Macaca fascicularis)), sequence (chain, as listed by the source limits assumed): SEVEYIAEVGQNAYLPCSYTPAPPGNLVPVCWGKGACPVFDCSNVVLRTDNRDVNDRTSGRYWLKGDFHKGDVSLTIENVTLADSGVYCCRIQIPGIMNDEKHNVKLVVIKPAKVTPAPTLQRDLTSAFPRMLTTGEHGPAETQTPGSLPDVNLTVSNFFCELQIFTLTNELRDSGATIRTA

Ratio Cynomolgus/Human EC50 [1]: 47
EC50 [2]: 9.42 nM
B1: antibody 19416 (antibody, V domains shown)
VH: QVQLVESGPGLVKPSQTLSLTCTVSGGSINSGGYYWSWIRQHPGKGLEWIGYIYYSGSIYYNPSLRSRLTISVDTSKNQFSLKLSSVTAADTAVYYCATPYYYGSGSYGDYWGQGTLVTVSS
VL: DIQMTQSPATLSLSPGERATLSCRASQSVNNYLAWYQQKPGQAPRLLIYDASNRATGIPARFSGSGSGTDFTLTISSLEPEDFAVYYCQQRSNWPITFGQGTRLEIK

— patent US20190276531A1
